# In US20140287419A1, “Compositions Having Dicamba Decarboxylase Activity and Methods of Use” (priority 2013, published 2014):
# B1: 62 (protein)
# chain: MAVGGKNFRDVTDQVWCPKKRIEDMDREGVDIQVLSPIPVTFSYWAKPEEAESMARIQNDFIAETVLAYPDRFVGLGTVPMQDGETAIREMERCITELNLHGIEIGTNVNGKNLDDPSFIEFFRMAEKWQVPIFIHPWETLGRDRMPHHNFMYTVGMPSETALAAATLIWSGIMEKFPRLKVCFAHGGGSFPYILPRLDQGWKVWPHLRLTTHPPSYYAKKFYFDSLNYDPINLKYMIERFGHEKIFMGSDYPFLLREVDPGKVIDETASLSEEQKAAMLGGNAAEFLNIDIKKRGVAYAESTNT
# modifications: Bacillus thuringiensis serovar pulsiensis
# B2: 72 (protein)
# chain: MADCPCCVSPKRRRLLGSVSAIAAGMMAGLPALAAQPSTAAAGTGKPLSIDIHAHYYSESFLGLLGGEGKQFGGHFFRNDDSFTFQTPAGGLGPLPMKFIDVEQRVRDMDNSGVDVQAISLSVPMVYWADRTLNAKLARAWNTAASDVHRKHPTRFVVLATLPMLNANDAIDELEFAAGLPGVRGIYMGTNINNRDLDDPLFSPIFKRIEQLNLPIFLHPQQTVGGARLADFYLSNLLGNPFDTAIAASHLILGGVLDKYPALHFSLPHAGGALPILVGRIDAGWSMRSETKRVAQKPSSYLRRFSYDTISHSGPTLDFLIRNIGADRLVLGSDYCFDMGYEQPVRFLDRLALPDDQKRMVVGGNAARLLNL
# modifications: Cupriavidus necator
# B3: 73 (protein, listed as Sphaerobacter thermophilus)
# chain: MARIDAHAHAQPPEYLDALLASGRYESVRDAEGRIVVRERGSRFLTITPQMHHPEQRVAEMDEAGIDMQILSVTTPQVYFLQGQAAVDLARRCNDYLADIVRSYPTRFRALASVPLTADPDAAVREFVRCLDDLGMVGAIIGSNIDGRPIDDPAFDAFYAEADRRATTLFIHPMVPAGIEVMNPYALAPLVGFMFDTTLAVSRLIFSGFFERYPRVKVLVGHLGAAVPYLAGRLDIGWRSYSDCQGIPHPPTEYIRRLYLDTVSFHAPALRCALETVGPDRIVFGSDYPHVIGDVGGAIASIQQALPATTHDGVLGHTAAELFGVSA
# B4: 70 (protein, listed as Alicyclobacillus acidocaldarius)
# chain: MAIEPNRAADVHTHFLPTEVLEFLKREPRIQVDLERRAPDKEPFLTVEGRWSFELKRMFVDFEAFASAYRQAGIGLALVSPLPQLFVYHLPAEMGAQVAEVYNDALRDVLAPHRERFRPLATLPLADPTAAARELERRMDEGFVGAIVGPGVGEALIGDEAFWPLWEVADARRAVLFLHPLLHADPRAARLMLPNLVGVPWETTLAAAHLVLSGLLDRYPGARVLLAHGGGFLPYQIGRIEQGYDVWPQVRGRLQDRPTAYLRRMFYDNVLWSDAALRCLIDVVGADRVLAGSDFPFDLSAWPPRPGADVSVLAGGSGREGRLS
# B5: 4 (protein, listed as Lactobacillus buchneri)
# chain: MAKVITLEEHFSSQKLGQKMAEVLPKRPIGNVSPKMQDYMQRSLPPEAELEDVTGSRIQWMDQHQISMQILSYGNQNPQNSDPKFAVELTKLANDELAKAVAKAPDRFRAFASLPVSHPTDAAAELKRGVEELGFKGAMLVRPTSQAHPFFDDPFYLPIFEAAANLNVPVYLHPSFPDSQIIDYYYSNGPWDDKVSGILGTAGYGWHTDVGIQTVRLLLSGVFEKYPNLKLISGHWGEFASFALERMDQVMYPETNLSEPISKIYRDHVYVTPSGILTEPQLKFVKDEVGIEHLLYSIDYPYIKPENSGSFIESSPLTDEEKELFAHGNAEKLLQL
# B6: 58 (protein)
# chain: MARVIALEEHYATTEFLRGPGTWLASRPGIVEPAGDLGDGRIAAMDQAGVDLAVLSLAAPGVEQLDPDDAVRLARDCNDQLAAAVRRYPDRLAGFATVPTSAPDRAADELERAVRGLGFPGAVINGHSRGRYLDDPFFEPVLARAAELQAPIYLHPTIPPAGVIESSYAGFAEPVTFALATVGWGWHINTATHALRMILGGVFDRHPSLQMIIGHMGEATSFMLPRFDATLKPELTGLNHPVSSYLRENFHYTFANFNDHATYANLVAQVGIERVAFSADYPFGSMVDARAFLDGLPLSDDERAAISHRNAEKLLGL
# modifications: Mycobacterium colombiense
# B7: 69 (protein, listed as Microbacterium testaceum)
# chain: MATSTEGQDVTDVHAHLLMPGLHAEVERRVPDEVQAAADLELRRNGLASLQASGRMIGERFPRLTDVRARLAAMDEQGVDRQWVSPSPNHFYPWANEGLATWASGEANRLIAEHVALAPDRLVGLGVVPLQHPHLVVDALDDAVLGRGLAGVEISSFAGDVELSDERLESFWARAAELRAVVFLHPFGCSLDERLDRFYLSNTVGQPTENAVALSHLIFSGVLDRHPGLRLIAAHGGGYLPTAIGRSDRAWRVRPEARGCAHAPSTYLSKLWFDTVVHDERALRWLVEAAGADRVLLGSDFPFDMGLDDPVAFVRGAGLQDAEVSGILGGNAAELLRTRVHA
# B8: 61 (protein, listed as Gordonia amarae)
# chain: MATGAGSGVPSPADRVIVRSPGVIDVHAHAVLPMSLGCAGAAGPEIGYREDGSPFFRVGEYVLNGVRYEGSAFMDPEVRVAAMDAAGIGLQMISPNPITYFTRLDARSATDYARAHNDAIAEAAGRHPGRLVGAAQLPMQDVPAAIAELERSVRELGLVAAYIDTDIGDRTLDAPELDDFYSAAVELDVPVFIHPSPVGQEGPPDDTRLRRFDLDLLLGFSYDETLAVAALVFGGVLERHPALDVCLSHGGGTLAFVAGRFARAVAKPRAWVPEFLVENGIESYLRRLWLDTHVHSAGSLRLLIDTVGTDRLVFGTNFAGWDADGATEVDALGDLRETTTANAAHLLRLGRA
# B9: 60 (protein, listed as Catenulispora acidiphila)
# chain: MARGFVRTAVVPGFWDAGWRGAGQPGGMRVDVHAHLFPAAYLDLLDDFRQDGGVGTREVRALGGGDGERELRLRLAAMDAVGVDVQLLSTCPQGPYTGDPTAAVEAARCANVALAQTVAQYPERLRALAALPLPHILASVDELNRAMEQDGMLGAAVGTSILGRPLSHPDFEPLFAALNRRKGVLFVHPIGESAGSPLMQASKLDRVIGYAAEVSTAILQLFQAGLTVKYPDIRIIAPHMGGYLPFLIQRLDRHRDWYLPKDAPSAGQLMRGIAYDTANPLPAALRLTAEVVGPERLLLGTDYPFEQGPSLRDHIEYILAAGLPEAQAKMIVDVNAADFLDMRSGAEQPPV
# B10: 71 (protein, listed as Burkholderia dolosa)
# chain: MARAGHRAARTRQSRPGDRTMTCSCCMSAGRRRVLGAFAALAGAPKGPRAASAAQPAAASKPTRGDATARNRHSRALLPGKASASWSATKASGSGGAFAWDDTTFTFRTPAGGLGPLPMKFIDVDARLRDMDASGVDVQALSLSVPMAYWGDRPFNAKLARAWNTAASRVHVRAPDRFVVLATLPMLDATDAIDELERASELPGVRGVYMGTNIDNRDLDDPRFAPVFARIEQLGLPVFLHPQQTVGGARLGDFYLSNLLGNPFDTAIAASHLILGGVLDRHPALHFTLPHAGGALPILVGRLDAGWTVRAETRRLAHQPSGYLRRFSYDTVSHSGPVLNFLIENVGIDRLVLGSDYCFDMGYEQPVRFLDRLDLTPDERAMVIGGNAGRLLRI
# B11: 64 (protein, listed as Achromobacter piechaudii)
# chain: MAIQKIDMHAHFFPPITRQEAAALDPVNAPWLRPDADGATGQIMAGEREFRPVDATLWDPALRIEQMDRHGVDVQILCATPIMFGYTYPARPAADWAARMNDLALEHCAYAPSRLKALAQVPLQDLELACQEASRARAAGHLGVQIGNHVGPRDLDDETLVQFLIHCANNDIPVLVHPWDMMTDGRMKKWMLPWLVSMPAETQLGILSLILSGAFERIPRSLKLCFAHGGGSFAYLLGRVDNAWRHRDIIRQDCPQLPSSYTDRFYTDSAVFDPRSLRLLIDVMGEDRVLLGSDYPYPLGEQEVGRLVAHAELVPEVQQKILFRNTMTFFGLQPGLQPGLQS
# B12: 68 (protein, listed as Hoeflea phototrophica)
# chain: MAIIDAHTHTLCPAVNEKVAGTIKPDSVPYQRDMSPESKEQDHTQFPELKIMFNQVERRLADMARMGIDRQVIAPAPGQQHYWAEPKLLAEISALQNDHVAELVARAPDRFAGIGTLPMTDPDAAVAEITRATRELGLRVFQIDSRVMERELSDASLDPIYAALEAAGAGLMIHPLGFSNGERLTPFFMVNSVAQPLEELLAFNHLVFGGVLDRFPKLKVYIAHGGGFAPFYIGRFDHAWKVRPEVNRLTPSAPSTYLRRIYFDTCVYRTDHIETLVRTVGADRVMLGSDYPFDMGDTDPLGLLNACQGLSDDEKATISSKVAIDFFGLET
# B13: 5 (protein, listed as Staphylococcus aureus)
# chain: MAQNNMEANQMKSITFEEHYVIEDIQKETMNAISADPKGVPMKVMLEGLEKKTGFTNADELSHHDERIQFMNNQDVQIQVLSYGNGSPSNLVGQKAIELCQKANDQLANYIAQYPNRFVGFATLPINEPEAAAREFERCINDLGFKGALIMGRAQDGFLDQDKYDIIFKTAENLGVPIYLHPAPVNSDIYQSYYKGNYPEVTAATFACFGYGWHIDVGIHAIHLVLSGIFDRYPKLNMIIGHWGEFIPFFLERMDEALFAEHLNHPVSYYFKNNFYITPSGMLTKPQFDLVKKEAGIDRILYAADYPYIEPEKLGVFLDELGLTDEEKEKISYTNGAKLLGLSSNN
# B14: 59 (protein)
# chain: MAPSVIDAHAHFLPGSLVTALRSRSDAPDIRTDSNGGESFGIYRTRMPYGRTYDALDVRLARMDELGVDRQILSLPGLFGIDSRPVSQALPLVRAFNDGVADLVRKHPDRFSGIAALPLADLDAAQEEYRRARGDLGLSGLILPGDTFVSVAAAERVRPLFELAATIGGLIFVHPGPLPDETGSAVDAPAPHTDSVVHRRVTVDIQNRMTEVMVTLALTDFLAPYPSVPVQVANLGGSLPFVIERMDHVYALRNPEAPPPSLSLRSLYVDAASLGPRAIALAAEVYGADRVLFGSDYPIFDDGRCLDAVRQTRLSPDARALIAGGNAARMLTQT
# modifications: alpha proteobacterium
# Assay: 14C assay with IPTG-induced recombinant E. coli cells (14CO2 capture from [14C]-carboxyl-labeled dicamba)
# Conditions: IPTG-induced recombinant E. coli cells; [14C]-carboxyl-labeled dicamba; 14CO2 capture
row,Molecule,Dicamba Decarboxylase Activity
1,B1,No
2,B2,Low
3,B3,Low
4,B4,Low
5,B5,High
6,B6,High
7,B7,No
8,B8,No
9,B9,No
10,B10,Low
11,B11,Low
12,B12,No
13,B13,High
14,B14,No

# Same assay, conditions: dicamba decarboxylation activity of the protein of the given SEQ ID NO
row,Molecule,Enzymatic Detection level
1,B1,No
2,B2,Low
3,B3,Low
4,B4,Low
5,B5,High
6,B6,High
7,B7,No
8,B8,No
9,B9,No
10,B10,Low
11,B11,Low
12,B12,No
13,B13,High
14,B14,No
